Laboratory results as given in the supplement of paper PMC9170038.

Legend:
MS2 coat protein [1] = experiment: apparent KD of MS2 coat protein, switch OFF state (with FMN for OFF switches, without FMN for ON switches); designed switch direction (-1 OFF switch, 1 ON switch): 1; higher = weaker reporter binding; conditions: FMN input: 0 or 200 uM; Eterna round: R93 (includes R88 designs)
Procedure, shortened: (§1)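 In 100 mM Tris-HCl pH 7.5 with 80 mM KCl and 4 mM MgCl2, and without or with constant ligand, SNAP-549-labelled MS2 coat protein was titrated in twofold steps from 0.7 or 1.5 nM to 3 µM. Per-step times went from 0.8–1.5 h down to 10–20 min. The RNA switches were transcribed on-chip from Illumina sequencing clusters, and apparent KD is the per-design median of normalised cluster binding-curve fits.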

MS2 coat protein [2] = experiment: apparent KD of MS2 coat protein, switch ON state; designed switch direction (-1 OFF switch, 1 ON switch): 1; higher = weaker reporter binding; conditions: FMN input: 0 or 200 uM; Eterna round: R93 (includes R88 designs)
Procedure, shortened: as §1

AAAUAACAUGCGCAGGAUAUGAGACCGAUAACAUGAGGAUCACCCAUGUUAAGGAAGAAAUAAAAUCAGAAGGGUGGGUGGACCU [Aatteri]
apparent KD of MS2 coat protein (MS2 coat protein [1]): 26.6 nM | apparent KD of MS2 coat protein (MS2 coat protein [2]): 25.7 nM

AAAUUACAUGAGGAUCACCCAUGUAGCGACGUGACAGGAUAUGUGGGUGAAAAUAGCAUGACAGAAGGGUCCCGUA [SameState1 Malc#40]
apparent KD of MS2 coat protein (MS2 coat protein [1]): 23.1 nM | apparent KD of MS2 coat protein (MS2 coat protein [2]): 57.8 nM

AACAAUCUAUCUGAGGAUAUAUGUCAAAAGACAUGAGGAUCACCCAUGUAAAAACAUGAAAAAACAUAGAAGGCAGAUAGAUUGA [SS2: 1134]
apparent KD of MS2 coat protein (MS2 coat protein [1]): 120 nM | apparent KD of MS2 coat protein (MS2 coat protein [2]): 41.5 nM

AACAAUCUAUCUGAGGAUAUAUGUCGAAAGACAUGAGGAUCACCCAUGUAAAAACAUGAAAAGACAUAGAAGGCAGAUAGAUUGA [SS2: 1132]
apparent KD of MS2 coat protein (MS2 coat protein [1]): 36.1 nM | apparent KD of MS2 coat protein (MS2 coat protein [2]): 18.6 nM

AACAAUCUAUCUGAGGAUAUCAUGUAAAAGACAUGAGGAUCACCCAUGUUGCAGGAAACUGCUCAUGAGAAGGCAGAUAGAUUGA [SS2: 1125]
apparent KD of MS2 coat protein (MS2 coat protein [1]): 13.8 nM | apparent KD of MS2 coat protein (MS2 coat protein [2]): 12.8 nM

AACAAUCUAUCUGAGGAUAUCAUGUCAAAGACAUGAGGAUCACCCAUGUACCAGGAAACUGGAUAUGAGAAGGCAGAUAGAUUGA [SS2: 1119]
apparent KD of MS2 coat protein (MS2 coat protein [1]): 204 nM | apparent KD of MS2 coat protein (MS2 coat protein [2]): 16.1 nM

AACAAUCUAUCUGAGGAUAUCAUGUGAAAGACAUGAGGAUCACCCAUGUCGCAGGAAACUGCUCAUGAGAAGGCAGAUAGAUUGA [SS2: 1127]
apparent KD of MS2 coat protein (MS2 coat protein [1]): 12.5 nM | apparent KD of MS2 coat protein (MS2 coat protein [2]): 15.6 nM

AACAUACAUGAGGAUCACCCAUGUUCCGGCAGGUCAGGAUAUUUAUCGAAUGAGUUCUAGAAAGAAGGGACAUAAA [JR_SS001_Sub008]
apparent KD of MS2 coat protein (MS2 coat protein [1]): 62.7 nM | apparent KD of MS2 coat protein (MS2 coat protein [2]): 45.8 nM

AACUACAUUAUGAAGGAUAUCCACAUCAAGACAUGAGGAUCACCCAUGUAUACUUAGAUCAUACAGGAGAAGGUCAAGGGUGAAU [JR_SS002_Sub1207]
apparent KD of MS2 coat protein (MS2 coat protein [1]): 89.2 nM | apparent KD of MS2 coat protein (MS2 coat protein [2]): 244 nM

AAGAAACAUGAGGAUCACCCAUGUAAUAAUAUGGGAGGAUAUACAAGGACAAUAGUCAAGGUAGAAGGCCUAAGAA [Mat - Same State 1 - Meechl mod - D142]
apparent KD of MS2 coat protein (MS2 coat protein [1]): 249 nM | apparent KD of MS2 coat protein (MS2 coat protein [2]): 26.7 nM

AAGAAACAUGAGGAUCACCCAUGUGAGAAUAUGGGAGGAUAUACAAGGACGUAAGUCAAGGUAGAAGGCCUAAGAA [Mat - Same State 1 - Meechl mod - D139]
apparent KD of MS2 coat protein (MS2 coat protein [1]): 200 nM | apparent KD of MS2 coat protein (MS2 coat protein [2]): 25.8 nM

AAGAAACAUGAGGAUCACCCAUGUGAGAUAAACACAGGAUAUGCGAAAAGAAAUAAAUAAGCAGAAGGGUGAAGAA [Mat - Same State 1 - Tesla mod - 70]
apparent KD of MS2 coat protein (MS2 coat protein [1]): 62.6 nM | apparent KD of MS2 coat protein (MS2 coat protein [2]): 26.4 nM

AAGAAACAUGAGGAUCACCCAUGUGAUAAUAUGGGAGGAUAUACAAAGACGAAAGACGAAGUAGAAGGCCUAAGAA [Garnet 47]
apparent KD of MS2 coat protein (MS2 coat protein [1]): 114 nM | apparent KD of MS2 coat protein (MS2 coat protein [2]): 56.3 nM

AAUAAAAAUAGUCAGGAUAUGAGAAAUAAGACAUGAGGAUCACCCAUGUAAUAAGUAAAAGUAAAUUAGAAGGGACAGGGUGAAA [JR_SS002_Sub019]
apparent KD of MS2 coat protein (MS2 coat protein [1]): 167 nM | apparent KD of MS2 coat protein (MS2 coat protein [2]): 200 nM

AAUAAACAUGAGGAUCACCCAUGUGGUGGCCCAUGAGGAUAUCCAUGUACAUUGUACACAGGAGAAGGCAUAGCCA [Tioredes]
apparent KD of MS2 coat protein (MS2 coat protein [1]): 27 nM | apparent KD of MS2 coat protein (MS2 coat protein [2]): 119 nM

AAUAAUUAUACGAAGGAUAUCGGUAAUUAGACAUGAGGAUCACCCAUGUAAUAUGGUUAAAUAUUCGAGAAGGUCGAGGGUGAAA [JR_SS002_Sub504]
apparent KD of MS2 coat protein (MS2 coat protein [1]): 29.4 nM | apparent KD of MS2 coat protein (MS2 coat protein [2]): 336 nM

AAUAAUUAUACGAAGGAUAUCGGUAAUUAGACAUGAGGAUCACCCAUGUUAUAUGGUUAAAUAUUCGAGAAGGUCGAGGGUGAAA [JR_SS002_Sub505]
apparent KD of MS2 coat protein (MS2 coat protein [1]): 32.7 nM | apparent KD of MS2 coat protein (MS2 coat protein [2]): 36.1 nM

AAUAUACAUGAGGAUCACCCAUGUUUUGGUGGGUCAGGAUAUAAAAACAAUUACAUAAAGUUAGAAGGGACAAAUA [JR_SS001_Sub004]
apparent KD of MS2 coat protein (MS2 coat protein [1]): 121 nM | apparent KD of MS2 coat protein (MS2 coat protein [2]): 111 nM
